Data: patent US20220235356

Biological target: KRAS G12D (GMPPNP-loaded) G12D (Homo sapiens) (UniProt P01116)
Assay: inhibition
Details: Raf-1 binding remaining vs no aptamer, average of four aptamers at 5x KRAS; PBS, 37 C, ELISA

Row | Sequence | activity
1 | NCATANNNNNCGGTACGTCCGNNTATGNGTGGGNGGTAAGGGAGACCNCNTGACTAGTACANNNCCACN [NBK2-1] | 50%
2 | NNNNNNNNGATCATGNNCCGGGTTCGGNTGGGGGGNNNNNNCATGATCTACTTGACTAGTNNN [NBK1-1] | 50%
3 | NNNNNNNNNNNNGGNCATNNGATCATGNNCCGGGTTCGGNTGGGGGGNNNNNNCATGATCTACTTGACTAGTANATGNCCNNNNNN [NBK1] | 50%
4 | NNNNNNNNNNNNNNNCATANNNNNCGGTACGTCCGNNTATGNGTGGGNGGTAAGGGAGACCNCNTGACTAGTACANNNCCACNNNN [NBK2] | 50%
